The values below come from patent US20180155451A1 (published 2018).

To fix the notation:
T1: FcγRIIb extracellular domain with C-terminal His tag (human, UniProt P31994 43-217)
T1 construct: extracellular domain; Soluble receptor expressed in FreeStyle293 cells; analyte in Biacore; also called FcgRIIb; 2b; not shown: His tag at the C terminus
T1 sequence (looked up): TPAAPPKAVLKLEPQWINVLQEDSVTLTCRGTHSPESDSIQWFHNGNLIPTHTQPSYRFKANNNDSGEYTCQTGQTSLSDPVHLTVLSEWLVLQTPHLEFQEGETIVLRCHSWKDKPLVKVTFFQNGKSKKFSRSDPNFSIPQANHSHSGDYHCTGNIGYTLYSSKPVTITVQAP

B1: GpH7-A5/GpH7-B3 variant E333_11K/GpL16-k0 (antibody, human IgG1, kappa)
heavy 1: not shown
heavy 2: not shown
light: DIVMTQSPLSLPVTPGEPASISCQASESLVHSNRNTYLHWYLQKPGQSPQLLIYKVSNRFSGVPDRFSGSGSGTDFTLKISRVEAEDVGVYYCSQNTHVPPTFGQGTKVEIERTVAAPSVFIFPPSDEQLKSGTASVVCLLNNFYPREAKVQWKVDNALQSGNSQESVTEQDSKDSTYSLSSTLTLSKADYEKHKVYACEVTHQGLSSPVTKSFNRGEC
notes: He Ab: heterodimerized anti-glypican-3 IgG1, substitution in one H chain only; also called He Ab E333K
B2: GpH7-A5/GpH7-B3 variant L328_05P/GpL16-k0 (antibody, human IgG1, kappa)
heavy 1: not shown
heavy 2: not shown
light: B1 light
notes: He Ab: heterodimerized anti-glypican-3 IgG1, substitution in one H chain only; also called He Ab L328P
B3: GpH7-A5/GpH7-B3 variant I336_13S/GpL16-k0 (antibody, human IgG1, kappa)
heavy 1: not shown
heavy 2: not shown
light: B1 light
notes: He Ab: heterodimerized anti-glypican-3 IgG1, substitution in one H chain only; also called He Ab I336S
B4: GpH7-A5/GpH7-B3 variant L328_18N/GpL16-k0 (antibody, human IgG1, kappa)
heavy 1: not shown
heavy 2: not shown
light: B1 light
notes: He Ab: heterodimerized anti-glypican-3 IgG1, substitution in one H chain only; also called He Ab L328N
B5: GpH7-A5/GpH7-B3 variant I336_19Q/GpL16-k0 (antibody, human IgG1, kappa)
heavy 1: not shown
heavy 2: not shown
light: B1 light
notes: He Ab: heterodimerized anti-glypican-3 IgG1, substitution in one H chain only; also called He Ab I336Q
B6: GpH7-A5/GpH7-B3 variant I336_01G/GpL16-k0 (antibody, human IgG1, kappa)
heavy 1: not shown
heavy 2: not shown
light: B1 light
notes: He Ab: heterodimerized anti-glypican-3 IgG1, substitution in one H chain only; also called He Ab I336G
B7: GpH7-A5/GpH7-B3 variant P329_07I/GpL16-k0 (antibody, human IgG1, kappa)
heavy 1: not shown
heavy 2: not shown
light: B1 light
notes: He Ab: heterodimerized anti-glypican-3 IgG1, substitution in one H chain only; also called He Ab P329I
B8: GpH7-A5/GpH7-B3 variant P329_02A/GpL16-k0 (antibody, human IgG1, kappa)
heavy 1: not shown
heavy 2: not shown
light: B1 light
notes: He Ab: heterodimerized anti-glypican-3 IgG1, substitution in one H chain only; also called He Ab P329A
B9: GpH7-A5/GpH7-B3 variant P329_18N/GpL16-k0 (antibody, human IgG1, kappa)
heavy 1: not shown
heavy 2: not shown
light: B1 light
notes: He Ab: heterodimerized anti-glypican-3 IgG1, substitution in one H chain only; also called He Ab P329N
B10: GpH7-A5/GpH7-B3 variant P329_04F/GpL16-k0 (antibody, human IgG1, kappa)
heavy 1: not shown
heavy 2: not shown
light: B1 light
notes: He Ab: heterodimerized anti-glypican-3 IgG1, substitution in one H chain only; also called He Ab P329F
B11: GpH7-A5/GpH7-B3 variant E333_16H/GpL16-k0 (antibody, human IgG1, kappa)
heavy 1: not shown
heavy 2: not shown
light: B1 light
notes: He Ab: heterodimerized anti-glypican-3 IgG1, substitution in one H chain only; also called He Ab E333H
B12: GpH7-A5/GpH7-B3 variant P329_16H/GpL16-k0 (antibody, human IgG1, kappa)
heavy 1: not shown
heavy 2: not shown
light: B1 light
notes: He Ab: heterodimerized anti-glypican-3 IgG1, substitution in one H chain only; also called He Ab P329H
B13: GpH7-A5/GpH7-B3 variant E333_12R/GpL16-k0 (antibody, human IgG1, kappa)
heavy 1: not shown
heavy 2: not shown
light: B1 light
notes: He Ab: heterodimerized anti-glypican-3 IgG1, substitution in one H chain only; also called He Ab E333R
B14: GpH7-A5/GpH7-B3 variant P329_03V/GpL16-k0 (antibody, human IgG1, kappa)
heavy 1: not shown
heavy 2: not shown
light: B1 light
notes: He Ab: heterodimerized anti-glypican-3 IgG1, substitution in one H chain only; also called He Ab P329V
B15: GpH7-A5/GpH7-B3 variant P329_08L/GpL16-k0 (antibody, human IgG1, kappa)
heavy 1: not shown
heavy 2: not shown
light: B1 light
notes: He Ab: heterodimerized anti-glypican-3 IgG1, substitution in one H chain only; also called He Ab P329L

The target in one experiment is T2, FcγRIa extracellular domain with C-terminal His tag (human, UniProt P12314 16-292).
T2 construct: extracellular domain; Soluble receptor expressed in FreeStyle293 cells; analyte in Biacore; also called FcgRI; FcgRIa; not shown: His tag at the C terminus
T2 sequence (P12314 16-292): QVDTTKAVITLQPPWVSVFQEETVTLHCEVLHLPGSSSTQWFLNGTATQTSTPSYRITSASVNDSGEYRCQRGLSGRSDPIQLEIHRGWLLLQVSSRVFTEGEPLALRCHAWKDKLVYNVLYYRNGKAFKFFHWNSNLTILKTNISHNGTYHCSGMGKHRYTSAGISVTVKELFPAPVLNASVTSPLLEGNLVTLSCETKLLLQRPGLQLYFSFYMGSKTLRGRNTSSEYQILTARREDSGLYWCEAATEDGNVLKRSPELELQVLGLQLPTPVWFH
As to the kind of experiment: SPR (Biacore); He/Con_1a divided by He/Con_2b (FcγRIIb). The method, then:
(§1) The heterodimerized antibodies He Abs in which one of the H chains was introduced with an alteration were assayed for their binding activities to each activating FcγR and inhibitory FcγR according to the method described in Example 4. […] The activating FcγRs in FIGS. 26, 27, 28, and 29 are FcγRIa, FcγRIIa (R), FcγRIIa (H), and FcγRIIIa, respectively.
(§2) Analysis of interaction between objective antibody and the FcγR was carried out using Biacore T100 (GE Healthcare). HBS-EP+ (GE Healthcare) was used as the running buffer, and the measurement temperature was set to 25° C. Chips produced by immobilizing the antigen peptide by the amine coupling method to a Series S Sencor Chip CM5 (GE Healthcare), or alternatively, chips produced by allowing preliminarily biotinylated antigen peptides to interact with and immobilize onto a Series S Sensor Chip SA (certified) (GE Healthcare) were used. Antibodies of interest were captured onto an antigen peptide-immobilized chip, and allowed to interact to each FcγR diluted with running buffer. To regenerate and repeatedly use the chip, the antibodies captured on the chip were washed off by reacting 10 mM glycine-HCl, pH 1.5.
As for B1, the “He_1a/2b (Ia/IIb)” value is 1.27.

Consider B2, for which the “He_1a/2b (Ia/IIb)” value is 1.42.

Regarding B3, the “He_1a/2b (Ia/IIb)” value is 1.22.

Turning to B4, the “He_1a/2b (Ia/IIb)” value stood at 1.22.

Take B5: the “He_1a/2b (Ia/IIb)” value was 1.78.

As to B6, the “He_1a/2b (Ia/IIb)” value is 1.21.

Consider B7, for which the “He_1a/2b (Ia/IIb)” value was found to be 2.72.

As for B8, the “He_1a/2b (Ia/IIb)” value came out at 2.52.

Take B9: the “He_1a/2b (Ia/IIb)” value turned out to be 2.29.

For the molecule B10, the “He_1a/2b (Ia/IIb)” value is 2.88.

On to B11, for which the “He_1a/2b (Ia/IIb)” value turned out to be 1.21.

Regarding B12, the “He_1a/2b (Ia/IIb)” value amounted to 2.45.

As to B13, the “He_1a/2b (Ia/IIb)” value came to 1.27.

As for B14, the “He_1a/2b (Ia/IIb)” value is 2.53.

With B15, the “He_1a/2b (Ia/IIb)” value came to 2.95.

Another experiment concerns the target T2, FcγRIa extracellular domain with …. As to the kind of experiment: SPR (Biacore), antibody captured on antigen peptide chip, FcγR as analyte; binding relative to GpH7-A5/GpH7-B3/GpL16-k0 = 100. The protocol:
as §1, §2
Regarding B1, the “He/Con_1a (Ia binding)” value was 102 % of control (control = 100).

Take B2: the “He/Con_1a (Ia binding)” value was 92.2 % of control (control = 100).

For B3, the “He/Con_1a (Ia binding)” value is 102 % of control (control = 100).

Take B4: the “He/Con_1a (Ia binding)” value was 98.7 % of control (control = 100).

Consider B5, for which the “He/Con_1a (Ia binding)” value was 104 % of control (control = 100).

As to B6, the “He/Con_1a (Ia binding)” value is 109 % of control (control = 100).

Consider B7, for which the “He/Con_1a (Ia binding)” value is 94.1 % of control (control = 100).

In the case of B8, the “He/Con_1a (Ia binding)” value is 102 % of control (control = 100).

Regarding B9, the “He/Con_1a (Ia binding)” value is 92.4 % of control (control = 100).

In the case of B10, the “He/Con_1a (Ia binding)” value was 92.7 % of control (control = 100).

As for B11, the “He/Con_1a (Ia binding)” value is 101 % of control (control = 100).

Take B12: the “He/Con_1a (Ia binding)” value was 95.6 % of control (control = 100).

With B13, the “He/Con_1a (Ia binding)” value is 102 % of control (control = 100).

Consider B14, for which the “He/Con_1a (Ia binding)” value was 97.4 % of control (control = 100).

As to B15, the “He/Con_1a (Ia binding)” value is 85.7 % of control (control = 100).

Another experiment addresses T1, FcγRIIb extracellular domain with …. The experiment is described as above. The method, then: as §1, §2
With B1, the “He/Con_2b (IIb binding)” value was 80.6 % of control (control = 100).

Consider B2, for which the “He/Con_2b (IIb binding)” value is 65.1 % of control (control = 100).

As for B3, the “He/Con_2b (IIb binding)” value is 83.7 % of control (control = 100).

As to B4, the “He/Con_2b (IIb binding)” value is 80.8 % of control (control = 100).

Consider B5, for which the “He/Con_2b (IIb binding)” value was 58.2 % of control (control = 100).

Turning to B6, the “He/Con_2b (IIb binding)” value was 90.1 % of control (control = 100).

With B7, the “He/Con_2b (IIb binding)” value was 34.6 % of control (control = 100).

For B8, the “He/Con_2b (IIb binding)” value was 40.5 % of control (control = 100).

Turning to B9, the “He/Con_2b (IIb binding)” value is 40.4 % of control (control = 100).

As for B10, the “He/Con_2b (IIb binding)” value is 32.2 % of control (control = 100).

Regarding B11, the “He/Con_2b (IIb binding)” value is 83.3 % of control (control = 100).

On to B12, for which the “He/Con_2b (IIb binding)” value was 39.1 % of control (control = 100).

For B13, the “He/Con_2b (IIb binding)” value was 80.4 % of control (control = 100).

As to B14, the “He/Con_2b (IIb binding)” value is 38.5 % of control (control = 100).

In the case of B15, the “He/Con_2b (IIb binding)” value is 29.1 % of control (control = 100).
